Test results from patent US8357523B2, “Beta-glucosidase variant enzymes and related polynucleotides” (Codexis, Inc., priority 2009, dated 2013).
Numbering of substitutions follows the chain as printed.

B1: 103 (protein)
chain: STAIAQEGAAPAAILHPEKWPRPATQRLIDPAVEKRVDALLKQLSVEEKVGQVIQGDIGTITPEDLRKYPLGSILAGGNSGPNGDDRAPPKEWLDLADAFYRVSLEKRPGHTPIPVLFGIDAVHGHGNIGSATIFPHNIALGATRDPELLRRIGEVTAVEMAATGIDWTFAPALSVVRDDRWGRTYEGFSEDPEIVAAYSAAIVEGVQGKFGSKDFMAPGRIVASAKHFLADGGTDQGRDQGDARISEDELIRIHNAGYPPAIDAGVLTVMASFSSWQGIKHHGHKQLLTDVLKGQMGFNGFIVGDWNAHDQVPGCTKFNCPTSLIAGLDMYMAADSWKQLYENTLAQVKDGTIPMARLDDAVRRILRVKVLAGLFEKPAPKDRPGLPGLETLGSPEHRAVGREAVRKSLVLLKNDKGTLPLSPKARVLVAGDGADNIGKQSGGWTISWQGTGNRNDEFPGATSILGGIRDAVADAGGSVEFDVAGQYKTKPDVAIVVFGEEPYAEFQGDVETLEYQPDQKQDLALLKKLKDQGIPVVAVFLSGRPMWVNPELNASDAFVAAWLPGTEGGGVADVLFTDKAGKVQHDFAGKLSYSWPRTAAQTTVNRGDADYNPLFAYGYGLTYKDKSKVGTLPEESGVPAEARQN
B2: 106 (protein)
chain: STAIAQEGAAPAAILHPEKWPRPATQRLIDPAVEKRVDALLKQLSVEEKVGQVIQGDIGTITPEDLRKYPLGSILAGGNSGPNGDDRAPPKEWLDLADAFYRVSLEKRPGHTPIPVLFGIDAVHGHGNIGSATIFPHNIALGATRDPELLRRIGEVTAVEMAATGIDWTFAPALSVVRDDRWGRTYEGFSEDPEIVAAYSAAIVEGVQGKFGSKDFMAPGRIVASAKHFLADGGTDQGRDQGDARISEDELIRIHNAGYPPAIDAGVLTVMASFSSWQGIKHHGHKQLLTDVLKGQMGFNGFIVGDWNAHDQVPGCTKFNCPTSLIAGLDMYMAADSWKQLYENTLAQVKDGTIPMARLDDAVRRILRVKVLAGLFEKPAPKDRPGLPGLETLGSPEHRAVGREAVRKSLVLLKNDKGTLPLSPKARVLVAGDGADNIGKQSGGWTISWQGTGNRNDEFPGATSILGGIRDAVADAGGSVEFDVAGQYKTKPDVAIVVFGEEPYAEFQGDVETLEYQPDQKQDLALLKKLKDQGIPVVAVFLSGRPMWVNPELNASDAFVAAWLPGTEGGGVADVLFTDKAGKVQHDFAGKLSYSWPRTAAQTTVNRGDADYNPLFAYGYGLTYKDKSKVGTLPEE
B3: 104 (protein)
chain: STAIAQEGAAPAAILHPEKWPRPATQRLIDPAVEKRVDALLKQLSVEEKVGQVIQGDIGTITPEDLRKYPLGSILAGGNSGPNGDDRAPPKEWLDLADAFYRVSLEKRPGHTPIPVLFGIDAVHGHGNIGSATIFPHNIALGATRDPELLRRIGEVTAVEMAATGIDWTFAPALSVVRDDRWGRTYEGFSEDPEIVAAYSAAIVEGVQGKFGSKDFMAPGRIVASAKHFLADGGTDQGRDQGDARISEDELIRIHNAGYPPAIDAGVLTVMASFSSWQGIKHHGHKQLLTDVLKGQMGFNGFIVGDWNAHDQVPGCTKFNCPTSLIAGLDMYMAADSWKQLYENTLAQVKDGTIPMARLDDAVRRILRVKVLAGLFEKPAPKDRPGLPGLETLGSPEHRAVGREAVRKSLVLLKNDKGTLPLSPKARVLVAGDGADNIGKQSGGWTISWQGTGNRNDEFPGATSILGGIRDAVADAGGSVEFDVAGQYKTKPDVAIVVFGEEPYAEFQGDVETLEYQPDQKQDLALLKKLKDQGIPVVAVFLSGRPMWVNPELNASDAFVAAWLPGTEGGGVADVLFTDKAGKVQHDFAGKLSYSWPRTAAQTTVNRGDADYNPLFAYGYGLTYKDKSKVGTLPEESGVPAEARQNAGIY
B4: 87 (protein)
chain: STAIAQEGAAPAAILHPEKWPRPATQRLIDPAVEKRVDALLKQLSVEEKVGQVIQGDIGTITPEDLRKYPLGSILAGGDSGPNGDDRAPPKEWLDLADAFYRVSLEKRPGHTPIPVLFGIDAVHGHGNIGSATIFPHNIALGMTRDPELLRRIGEVTAVEMAATGIDWTFAPALSVVRDDRWGRTYEGFSEDPEIVASYSAAIVEGVQGKYGSKDFMAPGRIVASAKHFLADGGTDQGRDQGDARISEDELIRIHNAGYPPAIDAGVLTVMASFSSWQGIKHHGHKQLLTDVLKGQMGFNGFIVGDWNAHDQVPGCTKFNCPTSLIAGLDMYMAADSWKQLYENTLAQVKDGTIPMARLDDAVRRILRVKVLAGLFEKPAPKDRPGLPGLETLGSPEHRAVGREAVRKSLVLLKNDKGTLPLSPKARVLVAGDGADNIGKQSGGWTISWQGTGNRNDEFPGATSILGGIRDAVADAGGSVEFDVAGQYKTKPDVAIVVFGEEPYAEFQGDVETLEYQPDQKQDLALLKKLKDQGIPVVAVFLSGRPMWVNPELNASDAFVAAWLPGTEGGGVADVLFTDKAGKVQHDFAGKLSYSWPRTAAQTTVNRGDADYNPLFAYGYGLTYKDKSKVGTLPEESGVPAEARQNAGIYFRAGALRLPGRFL
B5: 88 (protein)
chain: B4 chain with M143A, S198A, Y211F
B6: 93 (protein)
chain: B4 chain with D79N, M143A, S198A
B7: 90 (protein)
chain: B4 chain with M143A, S198A
B8: 98 (protein)
chain: B4 chain with T2A, D79N, M143A, A162T, S198A, A201P, Y211F, I222A
B9: 92 (protein)
chain: B4 chain with D79N, S198A, Y211F
B10: 96 (protein)
chain: B4 chain with D79N, V159E, S198A
B11: 95 (protein)
chain: B4 chain with D79N, M143A, V159Q
B12: 91 (protein)
chain: B4 chain with S198A, Y211F
B13: 89 (protein)
chain: B4 chain with M143A, Y211F, P219V
B14: 101 (protein)
chain: B4 chain with D79N, M143A, A162T, S198A, Y211F, I222A, S225C
B15: 99 (protein)
chain: B4 chain with D79N, N128K, M143A, S198A, Y211F, I222S, S225C
B16: 97 (protein)
chain: B4 chain with D79N, S198A, E642A, A643P
B17: 102 (protein)
chain: B4 chain with D79N, M143A, A162T, S198A, Y211F, S225C, A573S
B18: 107 (protein)
chain: STAIAQEGAAPAAILHPEKWPRPATQRLIDPAVEKRVDALLKQLSVEEKVGQVIQGDIGTITPEDLRKYPLGSILAGGNSGPNGDDRAPPKEWLDLADAFYRVSLEKRPGHTPIPVLFGIDAVHGHGNIGSATIFPHNIALGATRDPELLRRIGEVTAVEMAATGIDWTFAPALSVVRDDRWGRTYEGFSEDPEIVAAYSAAIVEGVQGKFGSKDFMAPGRIVASAKHFLADGGTDQGRDQGDARISEDELIRIHNAGYPPAIDAGVLTVMASFSSWQGIKHHGHKQLLTDVLKGQMGFNGFIVGDWNAHDQVPGCTKFNCPTSLIAGLDMYMAADSWKQLYENTLAQVKDGTIPMARLDDAVRRILRVKVLAGLFEKPAPKDRPGLPGLETLGSPEHRAVGREAVRKSLVLLKNDKGTLPLSPKARVLVAGDGADNIGKQSGGWTISWQGTGNRNDEFPGATSILGGIRDAVADAGGSVEFDVAGQYKTKPDVAIVVFGEEPYAEFQGDVETLEYQPDQKQDLALLKKLKDQGIPVVAVFLSGRPMWVNPELNASDAFVAAWLPGTEGGGVADVLFTDKAGKVQHDFAGKLSYSWPRTAAQTTVNRGDADYNPLFAYGYGLTYKDKSKVGTLPEESGVPAEAR
B19: 105 (protein)
chain: STAIAQEGAAPAAILHPEKWPRPATQRLIDPAVEKRVDALLKQLSVEEKVGQVIQGDIGTITPEDLRKYPLGSILAGGNSGPNGDDRAPPKEWLDLADAFYRVSLEKRPGHTPIPVLFGIDAVHGHGNIGSATIFPHNIALGATRDPELLRRIGEVTAVEMAATGIDWTFAPALSVVRDDRWGRTYEGFSEDPEIVAAYSAAIVEGVQGKFGSKDFMAPGRIVASAKHFLADGGTDQGRDQGDARISEDELIRIHNAGYPPAIDAGVLTVMASFSSWQGIKHHGHKQLLTDVLKGQMGFNGFIVGDWNAHDQVPGCTKFNCPTSLIAGLDMYMAADSWKQLYENTLAQVKDGTIPMARLDDAVRRILRVKVLAGLFEKPAPKDRPGLPGLETLGSPEHRAVGREAVRKSLVLLKNDKGTLPLSPKARVLVAGDGADNIGKQSGGWTISWQGTGNRNDEFPGATSILGGIRDAVADAGGSVEFDVAGQYKTKPDVAIVVFGEEPYAEFQGDVETLEYQPDQKQDLALLKKLKDQGIPVVAVFLSGRPMWVNPELNASDAFVAAWLPGTEGGGVADVLFTDKAGKVQHDFAGKLSYSWPRTAAQTTVNRGDADYNPLFAYGYGLTYKDKSKVGTLP

Assay: High throughput cellobiose assay: fold improvement in cellobiase activity of CelA variants over a control enzyme (Tables 2A-2D, 3, 5, 6, 7)
Format: biochemical
Conditions: 3.3 g/l cellobiose, 55° C. and pH 6.0

Molecule	Fold improvement over Control Variant No. 5 from Table 2A
B1	++ (++ = 1.1 to 6 fold improvement over control Variant No. 2)
B2	++ (++ = 1.1 to 6 fold improvement over control Variant No. 2)
B3	++ (++ = 1.1 to 6 fold improvement over control Variant No. 2)
B4	+++ (+++ = 6 to 13 fold improvement over control Variant No. 2)
B5	++ (++ = 1.1 to 6 fold improvement over control Variant No. 2)
B6	++ (++ = 1.1 to 6 fold improvement over control Variant No. 2)
B7	++ (++ = 1.1 to 6 fold improvement over control Variant No. 2)
B8	+++ (+++ = 6 to 13 fold improvement over control Variant No. 2)
B9	++ (++ = 1.1 to 6 fold improvement over control Variant No. 2)
B10	++ (++ = 1.1 to 6 fold improvement over control Variant No. 2)
B11	++ (++ = 1.1 to 6 fold improvement over control Variant No. 2)
B12	+++ (+++ = 6 to 13 fold improvement over control Variant No. 2)
B13	++ (++ = 1.1 to 6 fold improvement over control Variant No. 2)
B14	+++ (+++ = 6 to 13 fold improvement over control Variant No. 2)
B15	+++ (+++ = 6 to 13 fold improvement over control Variant No. 2)
B16	+++ (+++ = 6 to 13 fold improvement over control Variant No. 2)
B17	++ (++ = 1.1 to 6 fold improvement over control Variant No. 2)
B18	++ (++ = 1.1 to 6 fold improvement over control Variant No. 2)
B19	++ (++ = 1.1 to 6 fold improvement over control Variant No. 2)
